Assay results as given in PMC12325614 (Nature Communications, 2025).

B1: MGA271 whole antibody in human IgG1 format (antibody, V domains shown)
VH: EVQLVESGGGLVQPGGSLRLSCAASGFTFSSFGMHWVRQAPGKGLEWVAYISSDSSAIYYADTVKGRFTISRDNAKNSLYLQMNSLRDEDTAVYYCGRGRENIYYGSRLDYWGQGTTVTVSS
VL: DIQLTQSPSFLSASVGDRVTITCKASQNVDTNVAWYQQKPGKAPKALIYSASYRYSGVPSRFSGSGSGTDFTLTISSLQPEDFATYYCQQYNNYPFTFGQGTKLEIK
B2: TE9 whole antibody in human IgG1 format (antibody, V domains shown)
VH: QVQLQQSGAALVKPGTSVKLSCKASGYTFTSYWMHWVKQRPGQGLEWIGMIHPKSGSVDYNEKFTNKATLTGDKSSGTAYMQLSSLTSEDSAVYYCARGGYGSPFDYWGQGTTVTVSS
VL: ENVLTQSPAIMSASPGEKVTMTCSASSSVSYMYWYQQKPGSSPRLLIYRTSNLASGVPARFSGSGSGTSYSLTISSMEAEDAATYYCQQWSSNPPTFGGGTKLEIK

Biological target: 4-Ig human B7H3 (analyte of the Biacore SPR) (Homo sapiens, UniProt Q5ZPR3)
Sequence (Q5ZPR3 29-466): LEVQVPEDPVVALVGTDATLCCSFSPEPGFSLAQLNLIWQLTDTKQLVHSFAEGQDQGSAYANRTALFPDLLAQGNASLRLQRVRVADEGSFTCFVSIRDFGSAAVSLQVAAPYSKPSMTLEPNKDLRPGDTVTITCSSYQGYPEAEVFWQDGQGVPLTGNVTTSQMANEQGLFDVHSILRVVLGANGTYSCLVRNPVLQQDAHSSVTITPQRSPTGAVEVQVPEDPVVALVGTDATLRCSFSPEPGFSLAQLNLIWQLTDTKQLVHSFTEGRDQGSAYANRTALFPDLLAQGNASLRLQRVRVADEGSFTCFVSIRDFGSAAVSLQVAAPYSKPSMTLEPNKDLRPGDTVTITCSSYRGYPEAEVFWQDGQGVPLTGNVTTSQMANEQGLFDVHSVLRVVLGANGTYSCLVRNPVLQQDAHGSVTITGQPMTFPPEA
Assay: SPR

Row | Binder | Kd [nM]
1 | B1 | 1.61
2 | B2 | 0.44
